Two substances from article PMC8162069 can be followed below.

For the data set, the system named is O=C[C@H](O)COP(=O)(O)O. Description: purified protein. The data set is classed as biochemical, Homo sapiens. Conditions: without HA.

Hs-GAPDH (Homo sapiens): the Km (in general, the concentration of substrate that gives half-maximal velocity) is 240 ± 20 µM; the kcat (usually the number of substrate molecules converted per active site and unit of time at saturation) worked out at 21.7 ± 1.67 s⁻¹; the specificity constant (kcat/Km) – broadly, the turnover number divided by the Michaelis constant – was found to be 90000 M⁻¹ s⁻¹.
As for Hs-GAPDH (Homo sapiens; A232S/F233V), the Km amounted to 490 ± 210 µM, the kcat is 7.67 ± 2 s⁻¹ and the kcat/Km was found to be 15700 M⁻¹ s⁻¹.
